The target of the experiment is fadd_human FADD (UniProt Q13158).

This note sets out measurements from IntAct's records for PubMed 19176810.

UniProt Q13158, sequence (Q13158 whole entry): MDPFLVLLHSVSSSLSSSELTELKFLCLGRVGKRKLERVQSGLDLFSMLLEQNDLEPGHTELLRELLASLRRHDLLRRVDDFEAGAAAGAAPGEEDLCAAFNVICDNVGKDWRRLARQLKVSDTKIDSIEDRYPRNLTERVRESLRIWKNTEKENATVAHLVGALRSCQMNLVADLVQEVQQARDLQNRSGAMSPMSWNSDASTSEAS

On to “Leucine-rich repeat serine/threonine-protein kinase 2 (Homo sapiens), Q5S007 G2019S”, for which the “effect of a mutation on the interaction” value was “increasing interaction”.
Turning to “Leucine-rich repeat serine/threonine-protein kinase 2 (Homo sapiens), Q5S007 I2020T”, the “effect of a mutation on the interaction” value is “increasing interaction”.
“Leucine-rich repeat serine/threonine-protein kinase 2 (Homo sapiens), Q5S007 R1441C”: the “effect of a mutation on the interaction” value is reported as “increasing interaction”.
As to “Leucine-rich repeat serine/threonine-protein kinase 2 (Homo sapiens), Q5S007 Y1699C”, the “effect of a mutation on the interaction” value is listed as “increasing interaction”.
